Target: gp120 of HIV-1NL4-3 virus (on virus particles) (HIV-1 (NL4-3))
Experiment: cell-based or functional assay

B1: MoMo30 protein (hevamine A-related protein) from Momordica balsamina, purified from leaf extract (other)
chain: GGIATYWGQDTREGRLTAACATGKFQIINIGFLSTFGNGRPPQVNLTRHCSPISNGCRNVSVGVLNCRNDGVKVMLSIGGPHGSYSLSSAAEAIDLADYIWNNFLGGRSTSLRPFGDVPLDGVDFRIERGQFSHYYTMVARRLHDYGRQCSRKVYLTAAPGCRFPDKYLTELLHTGLFDYVWVRFFDDRQCQYNSVNPSGFWWSWMRWINSIPARKFYVGIPASEEAGDGYVAPEVLIKEVLPFTKKFTNYGGVMLFDLSNDVQTNYSSIISNRV
IC50, inhibition of HIV-1NL4-3 infectivity in MAGI cell assay: 2.8 nM
